Assay results published in the supplement of paper PMC10065799, “High-throughput profiling of sequence recognition by tyrosine kinases and SH2 domains using bacterial peptide display” (eLife, 2023).

Columns and labels:
AncSZ = assay: phosphorylation enrichment, bacterial display (enrichment ratio); higher = better substrate or ligand; peptides without Tyr show the background
EPHB1 = EPHB1 (UniProt P54762); assay: as above
EPHB2 = EPHB2 (UniProt P29323); assay: as above
FGFR1 = FGFR1 (UniProt P11362); assay: as above
FGFR3 = FGFR3 (UniProt P22607); assay: as above
Chain of FGFR3 (P22607 whole entry, looked up): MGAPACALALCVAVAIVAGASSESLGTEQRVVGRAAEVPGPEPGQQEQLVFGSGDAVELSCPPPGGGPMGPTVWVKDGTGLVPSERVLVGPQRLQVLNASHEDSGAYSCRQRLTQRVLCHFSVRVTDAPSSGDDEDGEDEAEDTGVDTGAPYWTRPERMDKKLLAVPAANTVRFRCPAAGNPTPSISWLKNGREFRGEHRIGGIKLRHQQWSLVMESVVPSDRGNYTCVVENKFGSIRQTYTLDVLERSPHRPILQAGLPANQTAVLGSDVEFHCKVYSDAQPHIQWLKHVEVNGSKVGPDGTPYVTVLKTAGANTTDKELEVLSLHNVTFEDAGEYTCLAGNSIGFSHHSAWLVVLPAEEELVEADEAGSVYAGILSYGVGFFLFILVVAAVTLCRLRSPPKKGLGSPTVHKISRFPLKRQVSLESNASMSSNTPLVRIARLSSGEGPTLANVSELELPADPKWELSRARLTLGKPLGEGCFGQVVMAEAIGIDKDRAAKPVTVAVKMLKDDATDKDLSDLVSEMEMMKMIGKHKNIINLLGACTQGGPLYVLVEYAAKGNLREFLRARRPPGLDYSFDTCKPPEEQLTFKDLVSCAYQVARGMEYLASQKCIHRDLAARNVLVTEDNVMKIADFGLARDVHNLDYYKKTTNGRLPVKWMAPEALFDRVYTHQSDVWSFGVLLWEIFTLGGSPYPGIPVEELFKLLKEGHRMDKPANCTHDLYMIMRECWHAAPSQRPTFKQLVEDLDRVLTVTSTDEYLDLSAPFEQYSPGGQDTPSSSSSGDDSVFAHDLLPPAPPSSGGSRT

Fer (mouse) = assay: as above
Fes = Fes (UniProt P07332); assay: as above
Chain of Fes (P07332 whole entry, looked up): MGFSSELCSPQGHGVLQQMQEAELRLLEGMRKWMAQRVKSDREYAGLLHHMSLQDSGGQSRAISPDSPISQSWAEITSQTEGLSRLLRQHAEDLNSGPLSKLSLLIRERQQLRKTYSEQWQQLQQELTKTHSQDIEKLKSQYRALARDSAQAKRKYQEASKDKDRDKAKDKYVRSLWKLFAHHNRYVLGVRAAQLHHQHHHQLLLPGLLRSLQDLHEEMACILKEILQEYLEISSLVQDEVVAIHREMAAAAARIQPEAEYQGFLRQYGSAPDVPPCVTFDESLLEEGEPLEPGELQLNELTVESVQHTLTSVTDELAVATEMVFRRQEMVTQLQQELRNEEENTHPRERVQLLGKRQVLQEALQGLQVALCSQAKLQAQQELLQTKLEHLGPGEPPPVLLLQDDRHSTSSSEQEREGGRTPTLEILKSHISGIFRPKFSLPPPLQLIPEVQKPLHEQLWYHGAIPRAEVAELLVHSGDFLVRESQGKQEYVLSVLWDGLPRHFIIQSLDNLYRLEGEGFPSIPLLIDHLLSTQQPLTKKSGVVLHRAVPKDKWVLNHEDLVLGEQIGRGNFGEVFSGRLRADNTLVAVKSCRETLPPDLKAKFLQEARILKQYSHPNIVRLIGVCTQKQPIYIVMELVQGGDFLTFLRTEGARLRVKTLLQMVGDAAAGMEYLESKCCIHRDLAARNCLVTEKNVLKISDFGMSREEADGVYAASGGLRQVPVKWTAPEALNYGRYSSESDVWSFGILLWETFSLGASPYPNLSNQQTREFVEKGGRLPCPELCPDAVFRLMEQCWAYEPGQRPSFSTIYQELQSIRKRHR

Fyn = Fyn (UniProt P06241); assay: as above
Chain of Fyn (P06241 whole entry, looked up): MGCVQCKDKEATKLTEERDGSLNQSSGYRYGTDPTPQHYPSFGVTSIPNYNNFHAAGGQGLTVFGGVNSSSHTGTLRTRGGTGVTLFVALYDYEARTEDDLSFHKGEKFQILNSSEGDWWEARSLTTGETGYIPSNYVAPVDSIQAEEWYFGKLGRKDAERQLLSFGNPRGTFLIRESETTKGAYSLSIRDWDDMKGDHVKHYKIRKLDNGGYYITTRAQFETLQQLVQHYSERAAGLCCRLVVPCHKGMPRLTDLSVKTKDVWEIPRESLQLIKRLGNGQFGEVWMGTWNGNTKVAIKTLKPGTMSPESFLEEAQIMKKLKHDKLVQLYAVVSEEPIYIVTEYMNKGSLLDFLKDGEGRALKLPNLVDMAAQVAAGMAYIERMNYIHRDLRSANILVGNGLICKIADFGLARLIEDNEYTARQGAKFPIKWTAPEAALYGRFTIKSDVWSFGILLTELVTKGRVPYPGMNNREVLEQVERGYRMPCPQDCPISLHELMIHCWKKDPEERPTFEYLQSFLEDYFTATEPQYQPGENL

Hck = Hck (UniProt P08631); assay: as above
Chain of Hck (P08631 whole entry, looked up): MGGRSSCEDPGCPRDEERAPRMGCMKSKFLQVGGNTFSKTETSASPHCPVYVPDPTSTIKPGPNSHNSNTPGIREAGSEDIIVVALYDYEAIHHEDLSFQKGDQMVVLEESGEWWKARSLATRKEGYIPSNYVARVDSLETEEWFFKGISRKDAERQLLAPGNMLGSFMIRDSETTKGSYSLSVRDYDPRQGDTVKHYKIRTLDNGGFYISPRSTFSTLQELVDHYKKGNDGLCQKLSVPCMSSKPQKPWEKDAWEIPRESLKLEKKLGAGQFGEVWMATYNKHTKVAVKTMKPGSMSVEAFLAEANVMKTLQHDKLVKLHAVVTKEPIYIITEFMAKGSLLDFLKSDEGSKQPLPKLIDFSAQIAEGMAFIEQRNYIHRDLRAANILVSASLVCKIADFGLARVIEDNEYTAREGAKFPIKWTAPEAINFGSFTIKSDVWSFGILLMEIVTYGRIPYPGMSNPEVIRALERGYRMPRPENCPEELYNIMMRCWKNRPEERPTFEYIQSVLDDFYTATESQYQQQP

Jak2 = Jak2 (UniProt O60674); assay: as above
MERTK = MERTK (UniProt Q12866); assay: as above
c-Abl (mouse) = assay: as above
c-Src = assay: as above
Grb2 SH2 = Grb2 SH2 (UniProt P62993); assay: SH2 binding enrichment of the phosphorylated peptide, bacterial display (enrichment ratio); higher = better substrate or ligand; peptides without Tyr show the background
SHP2-C SH2 = assay: as above
c-Src SH2 = assay: as above
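For SH2 binding enrichment of the phosphorylated peptide, bacterial display in this document: peptide library displayed on the E. coli surface as eCPX fusions, selected cells deep-sequenced, score is each peptide's frequency after selection divided by its frequency in the input.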
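For phosphorylation enrichment, bacterial display in this document: 11-residue human phosphosite peptides and single-mutation variants displayed on the E. coli surface, counted by deep sequencing, each peptide's frequency after selection divided by its frequency in the unselected input library; frequency after pTyr selection over input frequency; kinase dosed for 20-30% of maximal phosphorylation in three min.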

Chain of EPHB2 (P29323 whole entry, looked up): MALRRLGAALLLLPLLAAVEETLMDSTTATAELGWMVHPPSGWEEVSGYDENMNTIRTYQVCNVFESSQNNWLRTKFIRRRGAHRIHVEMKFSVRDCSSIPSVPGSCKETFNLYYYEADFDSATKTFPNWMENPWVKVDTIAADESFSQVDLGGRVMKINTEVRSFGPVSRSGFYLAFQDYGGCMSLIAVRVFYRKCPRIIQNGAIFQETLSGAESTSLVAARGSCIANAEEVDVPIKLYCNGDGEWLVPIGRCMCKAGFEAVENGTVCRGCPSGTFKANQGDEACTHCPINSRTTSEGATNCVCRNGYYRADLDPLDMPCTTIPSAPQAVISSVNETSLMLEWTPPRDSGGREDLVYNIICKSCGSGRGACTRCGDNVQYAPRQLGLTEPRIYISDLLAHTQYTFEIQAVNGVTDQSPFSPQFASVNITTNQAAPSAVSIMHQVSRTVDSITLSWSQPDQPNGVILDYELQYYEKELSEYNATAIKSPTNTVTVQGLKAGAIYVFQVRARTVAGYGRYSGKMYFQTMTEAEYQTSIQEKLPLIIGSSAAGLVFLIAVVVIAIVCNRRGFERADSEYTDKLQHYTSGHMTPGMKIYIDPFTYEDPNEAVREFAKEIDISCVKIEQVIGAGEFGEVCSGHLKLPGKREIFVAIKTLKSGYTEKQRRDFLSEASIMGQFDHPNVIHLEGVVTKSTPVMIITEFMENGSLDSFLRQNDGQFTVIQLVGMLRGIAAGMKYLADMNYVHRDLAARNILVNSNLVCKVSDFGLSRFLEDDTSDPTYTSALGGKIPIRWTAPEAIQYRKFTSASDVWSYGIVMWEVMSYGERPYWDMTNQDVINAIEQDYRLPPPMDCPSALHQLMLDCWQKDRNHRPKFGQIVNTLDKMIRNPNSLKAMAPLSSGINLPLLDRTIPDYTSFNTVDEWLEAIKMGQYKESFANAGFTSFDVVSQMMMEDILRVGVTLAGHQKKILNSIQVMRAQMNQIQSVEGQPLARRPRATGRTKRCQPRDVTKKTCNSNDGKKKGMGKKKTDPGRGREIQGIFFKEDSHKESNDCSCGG
Chain of EPHB1 (P54762 whole entry, looked up): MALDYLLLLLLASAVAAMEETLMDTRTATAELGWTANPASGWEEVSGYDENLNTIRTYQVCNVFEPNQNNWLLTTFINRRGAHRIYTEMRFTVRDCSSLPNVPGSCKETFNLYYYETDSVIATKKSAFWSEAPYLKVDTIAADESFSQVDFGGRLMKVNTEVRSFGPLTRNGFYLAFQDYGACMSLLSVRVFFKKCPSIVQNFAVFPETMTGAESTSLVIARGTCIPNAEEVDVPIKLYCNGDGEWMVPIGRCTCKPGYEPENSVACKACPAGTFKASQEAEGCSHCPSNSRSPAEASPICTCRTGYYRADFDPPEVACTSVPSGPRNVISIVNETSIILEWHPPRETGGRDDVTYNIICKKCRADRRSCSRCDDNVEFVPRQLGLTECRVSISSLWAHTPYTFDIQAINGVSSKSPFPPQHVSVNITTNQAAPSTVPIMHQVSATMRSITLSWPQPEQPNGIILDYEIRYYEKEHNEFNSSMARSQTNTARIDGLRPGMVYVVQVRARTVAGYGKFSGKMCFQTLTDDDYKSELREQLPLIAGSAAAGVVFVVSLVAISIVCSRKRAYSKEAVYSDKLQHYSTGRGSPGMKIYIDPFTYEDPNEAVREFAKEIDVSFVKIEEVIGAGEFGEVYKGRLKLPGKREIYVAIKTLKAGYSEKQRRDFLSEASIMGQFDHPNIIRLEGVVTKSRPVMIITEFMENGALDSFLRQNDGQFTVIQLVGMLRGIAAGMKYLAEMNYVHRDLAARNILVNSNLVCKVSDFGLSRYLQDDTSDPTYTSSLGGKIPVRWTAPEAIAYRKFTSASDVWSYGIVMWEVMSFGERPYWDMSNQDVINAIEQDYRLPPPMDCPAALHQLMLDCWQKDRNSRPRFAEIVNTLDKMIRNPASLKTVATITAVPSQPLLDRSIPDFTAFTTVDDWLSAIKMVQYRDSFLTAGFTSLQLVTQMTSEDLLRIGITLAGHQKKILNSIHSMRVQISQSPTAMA

Row | Sequence | SH2 binding enrichment (Grb2 SH2) | SH2 binding enrichment (SHP2-C SH2) | SH2 binding enrichment (c-Src SH2) | phosphorylation enrichment (AncSZ) | phosphorylation enrichment (EPHB1) | phosphorylation enrichment (EPHB2) | phosphorylation enrichment (FGFR1) | phosphorylation enrichment (FGFR3) | phosphorylation enrichment (Fer (mouse)) | phosphorylation enrichment (Fes) | phosphorylation enrichment (Fyn) | phosphorylation enrichment (Hck) | phosphorylation enrichment (Jak2) | phosphorylation enrichment (MERTK) | phosphorylation enrichment (c-Abl (mouse)) | phosphorylation enrichment (c-Src)
1 | KLQKYYRKNPD [EHHADH_Y683_Q685K] | 0.905 | 0.604 | 0.597 | 0.399 | 0.353 | 0.415 | 0.311 | 0.332 | 0.283 | 0.501 | 0.359 | 0.341 | 0.486 | 0.369 | 0.394 | 0.275
2 | MSLDQYSPSFP [FGFR1_Y776_P772S] | 0.825 | 0.646 | 0.45 | 0.68 | 0.374 | 0.465 | 0.468 | 0.549 | 0.429 | 0.782 | 0.551 | 0.481 | 0.929 | 0.44 | 0.598 | 0.454
3 | TDRNLYSKNLV [CFAP58_Y501_S496T] | 0.769 | 0.559 | 0.408 | 0.564 | 0.555 | 0.56 | 0.505 | 0.531 | 1.35 | 0.737 | 0.465 | 0.654 | 0.758 | 0.959 | 0.66 | 0.627
4 | EDNPEYMRLRN [ADD2_Y31_D28N] | 0.85 | 0.73 | 0.511 | 1.09 | 0.518 | 0.515 | 0.547 | 0.653 | 0.447 | 0.969 | 0.444 | 0.489 | 1.05 | 0.408 | 0.713 | 0.459
5 | YGAHKYHPLPV [OAT_Y55_N54K] | 1.65 | 1.74 | 1.36 | 0.657 | 0.371 | 0.39 | 0.444 | 0.403 | 1.08 | 0.892 | 0.611 | 0.787 | 0.557 | 0.442 | 0.498 | 0.562
6 | EFQLPYFNTVP [BMPR1A_Y457_M460T_YF] | 1.27 | 0.741 | 0.667 | 0.879 | 0.523 | 0.549 | 0.682 | 0.541 | 0.423 | 0.935 | 0.454 | 0.523 | 1.08 | 0.454 | 0.615 | 1.26
7 | PIYEGYALPHA [ACTA1_Y171] | 0.72 | 0.617 | 2.12 | 2.11 | 27.2 | 35.7 | 1.01 | 0.995 | 26.2 | 3.4 | 19.8 | 17.3 | 1.4 | 18.1 | 31.3 | 14.8
8 | VMTSKYRGGGG [HBA1_Y141_L137M] | 0.834 | 0.792 | 0.691 | 0.433 | 0.332 | 0.427 | 0.444 | 0.467 | 0.378 | 0.491 | 0.378 | 0.39 | 0.424 | 0.36 | 0.384 | 0.363
9 | KANEYYPVVLI [ADAMTS18_Y765] | 0.683 | 0.625 | 0.404 | 1.97 | 3.64 | 3.11 | 11.2 | 9.02 | 2.12 | 0.813 | 0.572 | 0.693 | 2.79 | 0.541 | 1.6 | 0.655
10 | TAALWYIYSHT [ENG_Y612] | 0.781 | 0.918 | 0.6 | 1.15 | 0.794 | 0.832 | 0.497 | 0.689 | 0.586 | 1.14 | 1.52 | 1.3 | 0.984 | 0.878 | 0.748 | 1.82
11 | FLAVGYHKPHI [IDS_Y225] | 1.21 | 1.27 | 1.18 | 0.741 | 0.356 | 0.59 | 0.408 | 0.647 | 0.561 | 0.799 | 0.495 | 0.602 | 0.733 | 0.368 | 0.709 | 0.448
12 | KNSFKYFMSDD [ATRX_Y203_C200S_YF] | 0.942 | 0.587 | 0.556 | 0.856 | 0.475 | 0.55 | 0.416 | 0.638 | 0.412 | 1.02 | 0.392 | 0.478 | 0.869 | 0.418 | 0.628 | 0.425
13 | SSWPDYVRPLP [HSPB1_Y54_G53D] | 0.974 | 0.71 | 0.489 | 4.98 | 1.57 | 0.599 | 2.49 | 1.6 | 0.54 | 0.93 | 0.442 | 0.511 | 7.67 | 0.437 | 0.808 | 0.475
14 | ILGRYYERGSI [PAX5_Y73_T75R] | 0.889 | 0.671 | 0.84 | 0.449 | 0.493 | 0.531 | 0.466 | 0.552 | 0.474 | 0.726 | 0.498 | 0.495 | 0.563 | 0.408 | 0.519 | 0.401
15 | HDEPTYARSSK [PEAK1_Y616] | 0.92 | 0.819 | 0.576 | 0.785 | 0.478 | 0.321 | 0.389 | 0.575 | 0.57 | 1.03 | 0.519 | 0.918 | 1.01 | 0.679 | 0.864 | 1.29
16 | EKLIQYCQSKG [AKR1B1_Y199] | 0.854 | 0.466 | 0.572 | 0.52 | 0.487 | 0.563 | 0.44 | 0.493 | 0.425 | 0.644 | 0.448 | 0.446 | 0.573 | 0.423 | 0.462 | 0.479
17 | IEDPYYGNDSD [ACP1_Y133] | 1.07 | 0.709 | 0.623 | 1.5 | 0.638 | 0.809 | 0.807 | 1.09 | 0.548 | 1.39 | 0.81 | 0.759 | 1.35 | 0.45 | 0.83 | 1.6
18 | LTSKPYAFTAR [NDUFS1_Y236] | 0.684 | 0.767 | 0.533 | 0.663 | 0.617 | 1.08 | 0.67 | 1.36 | 0.591 | 1.1 | 0.722 | 0.58 | 0.398 | 0.649 | 0.453 | 0.534

Now from value to sequence, other results behind:

Row | SH2 binding enrichment (Grb2 SH2) | SH2 binding enrichment (SHP2-C SH2) | SH2 binding enrichment (c-Src SH2) | Sequence | phosphorylation enrichment (AncSZ) | phosphorylation enrichment (EPHB1) | phosphorylation enrichment (EPHB2) | phosphorylation enrichment (FGFR1) | phosphorylation enrichment (FGFR3) | phosphorylation enrichment (Fer (mouse)) | phosphorylation enrichment (Fes) | phosphorylation enrichment (Fyn) | phosphorylation enrichment (Hck) | phosphorylation enrichment (Jak2) | phosphorylation enrichment (MERTK) | phosphorylation enrichment (c-Abl (mouse)) | phosphorylation enrichment (c-Src)
19 | 0.84 | 0.673 | 2.01 | GRRGQYVMLSE [TTC7A_Y396] | 0.692 | 0.431 | 0.494 | 0.506 | 0.532 | 0.45 | 0.586 | 0.546 | 0.512 | 0.573 | 0.673 | 0.565 | 0.549
20 | 0.869 | 0.821 | 0.349 | LLINKYGLSAH [SCP2_Y151] | 0.877 | 0.71 | 0.669 | 0.488 | 0.708 | 0.619 | 0.99 | 0.443 | 0.428 | 0.838 | 0.372 | 0.559 | 0.428
21 | 1.04 | 0.63 | 0.671 | PVDNLYAEPAV [PRPS1_Y146] | 2.52 | 5.2 | 9.31 | 0.61 | 0.986 | 4.64 | 1.31 | 1.96 | 3.99 | 1.02 | 6.34 | 8.54 | 1.56
22 | 0.979 | 0.687 | 0.526 | KDIENYIQDGK [RAD50_Y964] | 0.923 | 0.504 | 0.515 | 0.543 | 0.616 | 0.416 | 0.965 | 0.433 | 0.45 | 0.82 | 0.464 | 0.639 | 0.461
23 | 0.749 | 0.433 | 0.492 | RPGGRYPVARR [SHANK3_Y1569_S1566G] | 0.734 | 0.468 | 0.563 | 0.648 | 0.599 | 0.667 | 0.899 | 0.647 | 0.626 | 0.478 | 0.775 | 0.657 | 0.664
24 | 0.93 | 0.769 | 0.662 | NHYKRYNLCAE [PTEN_Y68_I67R] | 0.74 | 0.467 | 0.516 | 0.557 | 0.554 | 0.488 | 0.82 | 0.512 | 0.542 | 0.744 | 0.446 | 0.709 | 0.508
25 | 0.768 | 0.568 | 0.34 | IIRRLYLKWHP [SACS_Y4333] | 1.04 | 0.508 | 0.543 | 0.474 | 0.596 | 0.453 | 0.904 | 0.535 | 0.497 | 0.819 | 0.612 | 0.721 | 0.571
26 | 0.845 | 0.593 | 0.569 | SRVTQYERNFE [SNX1_Y463_D466N] | 0.763 | 0.421 | 0.387 | 0.453 | 0.499 | 0.438 | 0.813 | 0.45 | 0.435 | 0.662 | 0.379 | 0.634 | 0.377
27 | 0.863 | 0.641 | 0.464 | DVFVSYDFGKS [SORL1_Y139_YF] | 0.939 | 0.452 | 0.595 | 0.416 | 0.598 | 0.485 | 0.907 | 0.383 | 0.636 | 0.906 | 0.437 | 0.78 | 0.468
28 | 1.01 | 0.876 | 3.56 | TMETKYDNISR [SETDB2_Y477_V473M] | 0.652 | 0.356 | 0.424 | 0.678 | 0.474 | 0.403 | 0.689 | 0.414 | 0.431 | 0.808 | 0.469 | 0.665 | 0.429
29 | 0.747 | 0.676 | 0.622 | PEIIAYQPYGK [PRKCG_Y529] | 0.852 | 0.585 | 0.665 | 0.823 | 0.723 | 0.537 | 1.08 | 0.68 | 0.82 | 1.31 | 0.589 | 1.15 | 0.523
30 | 1.05 | 0.7 | 0.443 | ADARMYGVLPW [PLP1_Y207] | 0.793 | 0.945 | 2.48 | 0.511 | 0.545 | 0.594 | 0.84 | 9.58 | 9.33 | 0.7 | 3.38 | 1.24 | 6.65
31 | 1.24 | 1.11 | 0.695 | HRGYLYLAIEY [TEK_Y899] | 1.23 | 0.558 | 0.485 | 0.521 | 0.602 | 0.432 | 1.22 | 0.485 | 0.466 | 1.03 | 0.486 | 1.24 | 0.375
32 | 1.19 | 0.689 | 0.586 | KDHPDYEYQPR [SOX9_Y172_K173E] | 2.59 | 2.21 | 0.958 | 0.844 | 0.771 | 0.465 | 0.961 | 0.667 | 0.588 | 0.811 | 0.432 | 0.665 | 0.474
33 | 2.04 | 1.99 | 1.66 | CTTIHYNFMCT [TP53_Y234_N239T_YF] | 1.06 | 0.54 | 0.485 | 0.538 | 0.752 | 0.501 | 1.01 | 0.459 | 0.501 | 0.997 | 0.419 | 0.839 | 0.551
